Source: patent US20250313634A1 (WUXI BIOLOGICS SHANGHAI, published 2025)

How the values were obtained:
[1] = target: T1, full-length human PD-L1 expressed on CHO cells (human, UniProt Q9NZQ7 19-290); assay: FACS on CHO cells transfected with full-length human PD-L1
T1 construct: whole, on cells; also called CHO-K1 cells expressing human PD-L1; PD-L1 transfected CHO cells

[2] = target: T2, hPD-L1_ECD.His point mutant E60A (human, UniProt Q9NZQ7 19-238); assay: capture ELISA on coated 1.14.4; relative to silent alanine substitutions
T2 construct: extracellular domain
Outline: (§1)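 Capture ELISA in which supernatant containing quantified PD-L1 alanine mutant was detected with HRP anti-His antibody. Absorbance was normalized to the average of control mutants. Epitope residues were called at binding fold change <0.55.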

[3] = target: T3, hPD-L1_ECD.His point mutant L74A (human, UniProt Q9NZQ7 19-238); assay: as above
T3 construct: extracellular domain
Outline: as §1

[4] = target: T4, hPD-L1_ECD.His point mutant R186A (human, UniProt Q9NZQ7 19-238); assay: as above
T4 construct: extracellular domain
Outline: as §1

[5] = target: T5, hPD-L1_ECD.His point mutant T179A (human, UniProt Q9NZQ7 19-238); assay: as above
T5 construct: extracellular domain
Outline: as §1

[6] = target: T6, hPD-L1_ECD.His point mutant L106A (human, UniProt Q9NZQ7 19-238); assay: as above
T6 construct: extracellular domain
Outline: as §1

[7] = target: T7, hPD-L1_ECD.His point mutant N135A (human, UniProt Q9NZQ7 19-238); assay: as above
T7 construct: extracellular domain
Outline: as §1

[8] = target: T8, hPD-L1_ECD.His point mutant Y123A (human, UniProt Q9NZQ7 19-238); assay: as above
T8 construct: extracellular domain
Outline: as §1

[9] = target: T9, hPD-L1_ECD.His point mutant T127A (human, UniProt Q9NZQ7 19-238); assay: as above
T9 construct: extracellular domain
Outline: as §1

[10] = target: T10, hPD-L1_ECD.His point mutant K105A (human, UniProt Q9NZQ7 19-238); assay: as above
T10 construct: extracellular domain
Outline: as §1

[11] = target: T11, hPD-L1_ECD.His point mutant T20A (human, UniProt Q9NZQ7 19-238); assay: as above
T11 construct: extracellular domain
Outline: as §1

[12] = target: T12, hPD-L1_ECD.His point mutant Y81A (human, UniProt Q9NZQ7 19-238); assay: as above
T12 construct: extracellular domain
Outline: as §1

[13] = target: T13, hPD-L1_ECD.His point mutant K162A (human, UniProt Q9NZQ7 19-238); assay: as above
T13 construct: extracellular domain
Outline: as §1

[14] = target: T14, hPD-L1_ECD.His point mutant S80A (human, UniProt Q9NZQ7 19-238); assay: as above
T14 construct: extracellular domain
Outline: as §1

[15] = target: T15, hPD-L1_ECD.His point mutant V174A (human, UniProt Q9NZQ7 19-238); assay: as above
T15 construct: extracellular domain
Outline: as §1

[16] = target: T16, hPD-L1_ECD.His point mutant V29A (human, UniProt Q9NZQ7 19-238); assay: as above
T16 construct: extracellular domain
Outline: as §1

[17] = target: T17, hPD-L1_ECD.His point mutant P133A (human, UniProt Q9NZQ7 19-238); assay: as above
T17 construct: extracellular domain
Outline: as §1

[18] = target: T18, hPD-L1_ECD.His point mutant F19A (human, UniProt Q9NZQ7 19-238); assay: as above
T18 construct: extracellular domain
Outline: as §1

[19] = target: T19, hPD-L1_ECD.His point mutant V68A (human, UniProt Q9NZQ7 19-238); assay: as above
T19 construct: extracellular domain
Outline: as §1

[20] = target: T20, hPD-L1_ECD.His point mutant V111A (human, UniProt Q9NZQ7 19-238); assay: as above
T20 construct: extracellular domain
Outline: as §1

[21] = target: T21, mouse PD-L1_ECD.His protein (mouse, UniProt Q9EP73 19-239); assay: ELISA, 2 ug/ml 1.14.4 coated on the plate, mPD-L1-His protein titrated, HRP-anti-His detection
T21 construct: extracellular domain; Bought (Sino Biological, China); also called mPD-L1-His protein
T21 sequence (Q9EP73 19-239): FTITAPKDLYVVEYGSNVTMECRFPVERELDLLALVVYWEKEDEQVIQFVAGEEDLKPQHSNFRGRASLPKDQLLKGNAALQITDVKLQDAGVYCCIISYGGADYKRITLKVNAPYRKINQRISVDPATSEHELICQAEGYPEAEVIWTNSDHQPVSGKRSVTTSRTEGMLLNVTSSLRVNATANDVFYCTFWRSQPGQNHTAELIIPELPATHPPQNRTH

T15 sequence (Q9NZQ7 19-238 V174A): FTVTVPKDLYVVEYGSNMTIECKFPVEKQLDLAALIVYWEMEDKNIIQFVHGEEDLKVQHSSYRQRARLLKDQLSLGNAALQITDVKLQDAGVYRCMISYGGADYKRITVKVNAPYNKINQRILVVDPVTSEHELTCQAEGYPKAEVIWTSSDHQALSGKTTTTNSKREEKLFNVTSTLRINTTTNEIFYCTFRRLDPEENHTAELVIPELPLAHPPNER
T5 sequence (Q9NZQ7 19-238 T179A): as the sequence (Q9NZQ7 19-238 V174A) above, with A156V, T161A counted along it
T9 sequence (Q9NZQ7 19-238 T127A): as the sequence (Q9NZQ7 19-238 V174A) above, with T109A, A156V counted along it
T8 sequence (Q9NZQ7 19-238 Y123A): as the sequence (Q9NZQ7 19-238 V174A) above, with Y105A, A156V counted along it
T10 sequence (Q9NZQ7 19-238 K105A): as the sequence (Q9NZQ7 19-238 V174A) above, with K87A, A156V counted along it
T2 sequence (Q9NZQ7 19-238 E60A): as the sequence (Q9NZQ7 19-238 V174A) above, with E42A, A156V counted along it
T3 sequence (Q9NZQ7 19-238 L74A): as the sequence (Q9NZQ7 19-238 V174A) above, with L56A, A156V counted along it
T17 sequence (Q9NZQ7 19-238 P133A): as the sequence (Q9NZQ7 19-238 V174A) above, with P115A, A156V counted along it
T14 sequence (Q9NZQ7 19-238 S80A): as the sequence (Q9NZQ7 19-238 V174A) above, with S62A, A156V counted along it
T18 sequence (Q9NZQ7 19-238 F19A): as the sequence (Q9NZQ7 19-238 V174A) above, with F1A, A156V counted along it
T11 sequence (Q9NZQ7 19-238 T20A): as the sequence (Q9NZQ7 19-238 V174A) above, with T2A, A156V counted along it
T20 sequence (Q9NZQ7 19-238 V111A): as the sequence (Q9NZQ7 19-238 V174A) above, with V93A, A156V counted along it
T19 sequence (Q9NZQ7 19-238 V68A): as the sequence (Q9NZQ7 19-238 V174A) above, with V50A, A156V counted along it
T1 sequence (Q9NZQ7 19-290): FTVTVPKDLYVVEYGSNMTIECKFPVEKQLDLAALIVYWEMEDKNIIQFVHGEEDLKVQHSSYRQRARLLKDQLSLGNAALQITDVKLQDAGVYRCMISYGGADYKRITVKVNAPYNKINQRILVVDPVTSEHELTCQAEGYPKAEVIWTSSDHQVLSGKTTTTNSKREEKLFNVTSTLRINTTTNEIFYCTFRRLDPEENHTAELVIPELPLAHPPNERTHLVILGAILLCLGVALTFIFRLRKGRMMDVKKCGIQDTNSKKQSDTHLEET
T4 sequence (Q9NZQ7 19-238 R186A): as the sequence (Q9NZQ7 19-238 V174A) above, with A156V, R168A counted along it
T16 sequence (Q9NZQ7 19-238 V29A): as the sequence (Q9NZQ7 19-238 V174A) above, with V11A, A156V counted along it
T7 sequence (Q9NZQ7 19-238 N135A): as the sequence (Q9NZQ7 19-238 V174A) above, with N117A, A156V counted along it
T13 sequence (Q9NZQ7 19-238 K162A): as the sequence (Q9NZQ7 19-238 V174A) above, with K144A, A156V counted along it
T6 sequence (Q9NZQ7 19-238 L106A): as the sequence (Q9NZQ7 19-238 V174A) above, with L88A, A156V counted along it
T12 sequence (Q9NZQ7 19-238 Y81A): as the sequence (Q9NZQ7 19-238 V174A) above, with Y63A, A156V counted along it

B1: 1.14.4 (antibody, V domains shown)
VH: EVQLLESGGGLVQPGGSLRLSCAASGFTFSSYAMSWVRQAPGKGLEWVSGISGSGGFTYYADSVKGRFTISRDNSKNTLYLQMNSLRAEDTAVYYCAKPPRGYNYGPFDYWGQGTLVTVSS
VL: SYVLTQPPSVSVAPGQTARITCGGNNIGSKSVHWYQQKPGQAPVLVVYDDSDRPSGIPERFSGSNSGNTATLTISRVEAGDEADYYCQVWDSSSDHVVFGGGTKLTVL
notes: Fully human monoclonal antibody with a human constant region of IgG4 isotype
In the case of B1, the “EC50 (read off the curve)” value [1] is reported as roughly 1 nM, the fold change [2] is reported as 0.547 fold and the fold change [3] is reported as 1.02 fold. The fold change [4] was 0.805 fold, the fold change [5] was 0.893 fold and the fold change [6] was 0.732 fold. The fold change [7] was 1.03 fold, the fold change [8] was 1.11 fold and the fold change [9] was 0.735 fold. It also gave a fold change [10] of 0.816 fold, a fold change [11] of 0.974 fold and a fold change [12] of 0.692 fold. It also gave a fold change [13] of 0.99 fold, a fold change [14] of 0.974 fold and a fold change [15] of 0.983 fold. For the same binder, the fold change [16] was 0.882 fold, the fold change [17] was 0.664 fold and the fold change [18] was 0.78 fold. For the same binder, the fold change [19] was 0.707 fold, the fold change [20] was 0.723 fold and the binding result [21] was “no binding”.
